Test results published in publication PMC12075841.

Tests used:
[1] = NONO immunostaining, paraspeckle count per nucleus; details: glycan lost; control: NONO WT in NONO-KO HCT116
[2] = NONO immunostaining, speckle count, HCT116; details: glycan gained; control: 5.5 mM glucose, no OGT

Protein	localisation_or_trafficking [1]	localisation_or_trafficking [2]
NONO (Non-POU domain-containing octamer-binding protein): T440A (protein) parent chain: MQSNKTFNLEKQNHTPRKHHQHHHQQQHHQQQQQQPPPPPIPANGQQASSQNEGLTIDLKNFRKPGEKTFTQRSRLFVGNLPPDITEEEMRKLFEKYGKAGEVFIHKDKGFGFIRLETRTLAEIAKVELDNMPLRGKQLRVRFACHSASLTVRNLPQYVSNELLEEAFSVFGQVERAVVIVDDRGRPSGKGIVEFSGKPAARKALDRCSEGSFLLTTFPRPVTVEPMDQLDDEEGLPEKLVIKNQQFHKEREQPPRFAQPGSFEYEYAMRWKALIEMEKQQQDQVDRNIKEAREKLEMEMEAARHEHQVMLMRQDLMRRQEELRRMEELHNQEVQKRKQLELRQEEERRRREEEMRRQQEEMMRRQQEGFKGTFPDAREQEIRMGQMAMGGAMGINNRGAMPPAPVPAGTPAPPGPATMMPDGTLGLTPPTTERFGQAATMEGIGAIGGTPPAFNRAAPGAEFAPNKRRRY	decreases	
NONO (Non-POU domain-containing octamer-binding protein): myc-tagged OGT overexpression (protein) parent chain: MQSNKTFNLEKQNHTPRKHHQHHHQQQHHQQQQQQPPPPPIPANGQQASSQNEGLTIDLKNFRKPGEKTFTQRSRLFVGNLPPDITEEEMRKLFEKYGKAGEVFIHKDKGFGFIRLETRTLAEIAKVELDNMPLRGKQLRVRFACHSASLTVRNLPQYVSNELLEEAFSVFGQVERAVVIVDDRGRPSGKGIVEFSGKPAARKALDRCSEGSFLLTTFPRPVTVEPMDQLDDEEGLPEKLVIKNQQFHKEREQPPRFAQPGSFEYEYAMRWKALIEMEKQQQDQVDRNIKEAREKLEMEMEAARHEHQVMLMRQDLMRRQEELRRMEELHNQEVQKRKQLELRQEEERRRREEEMRRQQEEMMRRQQEGFKGTFPDAREQEIRMGQMAMGGAMGINNRGAMPPAPVPAGTPAPPGPATMMPDGTLGLTPPTTERFGQAATMEGIGAIGGTPPAFNRAAPGAEFAPNKRRRY		increases
